From patent US20210214414A1 (Pfizer, published 2021)

Experiments:
Rabbit SLIT3-N = target: T1, Rabbit SLIT3-N (rabbit, UniProt A0A5F9DK65 34-1126); assay: HTRF competition: d2-labelled rabbit SLIT3-N binding to human ROBO2 on HEK293 cells; geometric mean, n=3
T1 construct: domain: SLIT3-N; d2-labelled in the HTRF assay
T1 sequence: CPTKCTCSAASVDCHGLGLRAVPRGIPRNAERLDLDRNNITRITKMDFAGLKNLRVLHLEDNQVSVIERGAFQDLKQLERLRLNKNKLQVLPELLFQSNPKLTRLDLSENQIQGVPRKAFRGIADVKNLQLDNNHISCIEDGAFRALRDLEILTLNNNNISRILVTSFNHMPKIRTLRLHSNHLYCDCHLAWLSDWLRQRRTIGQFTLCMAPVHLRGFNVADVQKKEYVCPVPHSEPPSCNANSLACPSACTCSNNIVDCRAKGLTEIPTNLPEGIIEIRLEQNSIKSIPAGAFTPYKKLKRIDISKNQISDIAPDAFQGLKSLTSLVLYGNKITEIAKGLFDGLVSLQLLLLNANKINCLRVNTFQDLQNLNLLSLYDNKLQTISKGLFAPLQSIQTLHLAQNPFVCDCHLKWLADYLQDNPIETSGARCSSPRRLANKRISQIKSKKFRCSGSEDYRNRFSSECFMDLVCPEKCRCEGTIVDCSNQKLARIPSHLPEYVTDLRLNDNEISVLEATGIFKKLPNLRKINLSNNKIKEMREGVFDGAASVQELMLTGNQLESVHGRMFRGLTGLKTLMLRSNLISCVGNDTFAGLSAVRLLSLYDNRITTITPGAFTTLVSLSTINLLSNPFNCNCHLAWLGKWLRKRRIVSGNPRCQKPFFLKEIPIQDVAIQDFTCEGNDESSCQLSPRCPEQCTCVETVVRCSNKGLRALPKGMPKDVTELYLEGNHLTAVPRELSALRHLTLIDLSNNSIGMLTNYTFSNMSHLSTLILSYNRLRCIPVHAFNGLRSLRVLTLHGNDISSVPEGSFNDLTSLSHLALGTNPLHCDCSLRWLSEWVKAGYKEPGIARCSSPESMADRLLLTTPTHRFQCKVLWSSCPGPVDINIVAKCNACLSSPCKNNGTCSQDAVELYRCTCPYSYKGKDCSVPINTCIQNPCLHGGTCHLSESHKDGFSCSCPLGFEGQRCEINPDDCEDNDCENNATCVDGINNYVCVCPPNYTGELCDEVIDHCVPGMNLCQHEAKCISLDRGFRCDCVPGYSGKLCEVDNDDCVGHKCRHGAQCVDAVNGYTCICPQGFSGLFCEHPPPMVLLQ
Method: (§1) After incubation, fluorescence at 665 nm and 620 nm was measured on an Envision multilabel plate reader. The HTRF Ratio was calculated as follows: fluorescence at 665 nm/fluorescence at 620 nm×10,000. […] The IC₅₀ for each SLITx-N was determined using an 11-point, 4-fold dilution series with a top concentration of 4000 nM.

[1] = target: T2, Cynomolgus monkey SLIT3-N (cynomolgus monkey, UniProt A0A2K5UAP4 33-1125); assay: HTRF competition: d2-labelled cynomolgus monkey SLIT3-N binding to human ROBO2 on HEK293 cells; geometric mean, n=3
T2 construct: domain: SLIT3-N; d2-labelled in the HTRF assay
T2 sequence: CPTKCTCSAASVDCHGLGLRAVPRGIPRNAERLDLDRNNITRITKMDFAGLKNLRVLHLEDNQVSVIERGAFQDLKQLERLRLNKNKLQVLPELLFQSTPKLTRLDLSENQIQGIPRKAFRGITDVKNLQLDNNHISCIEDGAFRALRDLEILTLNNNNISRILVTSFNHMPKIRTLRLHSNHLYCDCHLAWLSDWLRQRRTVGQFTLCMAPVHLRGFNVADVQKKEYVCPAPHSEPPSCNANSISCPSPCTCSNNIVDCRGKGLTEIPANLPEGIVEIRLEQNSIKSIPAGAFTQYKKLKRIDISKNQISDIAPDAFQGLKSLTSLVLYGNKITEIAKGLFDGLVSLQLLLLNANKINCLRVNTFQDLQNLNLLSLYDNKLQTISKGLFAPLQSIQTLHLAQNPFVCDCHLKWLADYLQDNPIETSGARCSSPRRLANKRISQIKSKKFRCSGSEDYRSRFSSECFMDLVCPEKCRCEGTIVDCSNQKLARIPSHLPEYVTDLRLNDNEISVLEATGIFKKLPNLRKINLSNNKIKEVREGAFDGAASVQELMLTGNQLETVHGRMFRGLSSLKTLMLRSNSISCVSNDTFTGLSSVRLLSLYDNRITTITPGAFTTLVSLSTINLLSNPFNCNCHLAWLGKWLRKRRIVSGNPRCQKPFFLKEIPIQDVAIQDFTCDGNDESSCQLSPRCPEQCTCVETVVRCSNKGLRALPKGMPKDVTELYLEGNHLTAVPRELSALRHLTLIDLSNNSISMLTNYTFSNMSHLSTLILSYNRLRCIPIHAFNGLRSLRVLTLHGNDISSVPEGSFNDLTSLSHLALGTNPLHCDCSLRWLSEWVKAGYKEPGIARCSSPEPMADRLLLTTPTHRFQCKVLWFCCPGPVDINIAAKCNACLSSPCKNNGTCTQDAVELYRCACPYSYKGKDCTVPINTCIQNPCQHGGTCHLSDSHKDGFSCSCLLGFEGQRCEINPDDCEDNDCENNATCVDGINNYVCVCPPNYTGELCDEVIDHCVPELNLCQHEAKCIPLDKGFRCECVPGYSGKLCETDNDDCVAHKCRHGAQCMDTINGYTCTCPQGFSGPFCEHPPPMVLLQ
Method: as §1

B1: ROBO2-Fc 2.2 (Fc fusion)
chain: SRLRQEDFPPRIVEHPSDVIVSKGEPTTLNCKAEGRPTPTIEWYKDGERVETDKDDPRSHRMLLPSGSLFFLRIVHGRRSKPDEGSYVCVARNYLGEAVSRNASLEVALLRDDFRQNPTDVVVAAGEPAILECQPPRGHPEPTIYWKKDKVRIDDKEERISIRGGKLMISNTRKSDAGMYTCVGTNMVGERDSDPAELTVFERGGSGGSEPKSSDKTHTCPPCPAPEAAGAPSVFLFPPKPKDTLMISRTPEVTCVVVDVSHEDPEVKFNWYVDGVEVHNAKTKPREEQYNSTYRVVSVLTVLHQDWLNGKEYKCKVSNKALPAPIEKTISKAKGQPREPQVYTLPPSREEMTKNQVSLTCLVKGFYPSDIAVEWESNGQPENNYKTTPPVLDSDGSFFLYSKLTVDKSRWQQGNVFSCSVMHEALHNHYTQKSLSLSPG
notes: Labelled with Alexa Fluor 647 in the flow cytometry assay; also called ROBO-Fc 2.2; ROBO2-Fc 2.2-AF647
Q: Which results are given for B1?
A: IC50 (Rabbit SLIT3-N): 10.2 nM; IC50 [1]: 3.6 nM
